In a protein production outcome set (Wang et al. 2014) one finds protein production data, which are given here for 18 sequences.

The nature of the series: label from the status in PepcDB records.
For the sequence “MSQKIVILGSGESGVGAALLSKAKGYDTFVSDSSMITEAFIAELQQAGIAFEQGVHSEEKILSAQLIVKSPGIPEKAPIMKLIRSKAIEVISEIEFAYRHIHPGAKFIAITGSNGKTTTTLLTHHILAQLGYSVGLGGNIGTSLARQIIHEKKDVYVLELSSFQLDDMYTFKADVAVLLNITPDHLDRYEYKFENYTASKFRIFQNLTPADYYITYSEDSVIESYKKDHPVDARYVPVSLKQLYSAGAYSDEKTIQIHALDDTVVTCNTEEFPLQGKHNYINIMAALNAAVSIGADIHKSIASIKSFRNAPHRLEFVGSIYGVKFVNDSKATNVDSVWYALDSMKTPVVLIVGGVDKGNDYSQIEALVKEKVHTVVALGKDNSKVLSGFASMVSEIKEAHSMVEAIRIAHDSAKKGDTVLLSPACASFDLFKNYEDRGTQFRNLVIELAG”, the protein production entry was “failed”.

With “MSQKRLSRVIYPGTFDPITNGHLDLIERAAQMFDEVIIAVAASPSKNTLFTLEERVEFARQVTSHLDNVSAKGFSGLLVDFAKAEKANVLIRGLRTTVDFEYEFGLTNMYRRLMPGLESVFLTPAEEHAFISSTLVREVAIHGGNVDEFVPAIVANALHQKKKI”, the protein production entry was “failed”.

“MSQLPTLIADLALILICAGVMTLLFKKLKQPLVLGYVVAGFLASPHMPYTPSVMDTANIKTWADIGVIFLLFALGLEFSFKKIVKVGGSAIIAACTIIFCMILLGIGVGMGFGWHRMDSLFLGGMIAMSSTTIIYKAFDDLGLRKKQFTGLVLSILILEDILAIVLMVMLSTMAVSHNFEGTEMLESIGKLLFFLILWFVVGIYLIPEFLKRCRKLMGEETLLIVSLALCFGMVVMAANTGFSAAFGAFIMGSILAETIEAESIDRLVKPVKDLFGAIFFVSVGMMVDPAMIIEYAIPIIVITIAVILGQATFGTFGVILSGKPLKTAMQCGFSLTQIGEFAFIIASLGVSLHVTSDFLYPIVVAVSVITTFLTPYMIRLAEPASSFVDAHLPASWRKFLMRYSSGSQTVLNHENLWKKLLLAMVRITVVYSIVSISIIALSFRFVVPFFKENLPHFWASLLGAVFIILCISPFLRAIMVKKNHSVEFMTLWHDNRANRAPLVSTIVIRIMIAALFVIFVISGLFKASIGLIIGVAVLAVLLMVWSRRLKKQSILIERRFFQNLRSREVRAEYLGEKKPEYAGRLLSHDLHLADLEIPGESTWAGKTLMELNLGKKYGIHIASILRGKRRINIPGGSVRLFPMDKIQVIGTDEQLNVFSSAMQSGAKIDWEMYEKGEMTLKQFIIDADSVFLGKTIRESGIRDKYHCMIAGVEREDGTLMVPDVNAPFEEGDVVWVVGEKENVYQLVDQKNEKIQVK”: the protein production result is listed as “failed”.

For the sequence “MSQMMQMYQQVGPAQFSAMIGQFAPYFASIAPQFVELRPGYAEVTFPKRREVLNHIGTVHAIALCNAAELAAGTMTDASIPAGHRWIPRGMTVEYLAKATGDVRAVADGSQIDWQATGNLVVPVVAYVDDKPVFRAEITMYVSQA”, the protein production entry is recorded as “not failed”.

Take “MSQNLQETSQAYPRHRPGSHAGPKSLKVTPRATMYTFLPDNFSPAKPKPTKELRPLLCSAVLGLLLVLAAVVAWCYYSASLRKAERLRAELLDLNRGGFSIRNQKGEQVFRLAFRSGALDLDSCSRDGALLGCSRAADGRPLHFFIQTVRPKDTVMCYRVRWEEAVPGRAVEHAMFLGDAAAHWYGGAEMRTQHWPIRLDGQQEPQPFVTSDVYSSDAAFGGILERYWLSSRAAAIKVNDSVPFHLGWNSTERSMRLQARYHDTSYKPPAGRTAAPELSYRVCVGSDVTSIHKYMVRRYFNKPSRVPASEAFRDPIWSTWALHGRAVDQNKVLQFAQQIRQHRFNSSHLEIDDMYTPAYGDFNFDEGKFPNASDMFRRLRDAGFRVTLWVHPFVNYNSSSFGEGVERELFVREPTGRLPALVRWWNGIGAVLDFTHPEAREWFQGHLRRLRLRYNVTSFKFDAGEVSYLPRDFSTYRPLSDPSVWSRRYTEMAEPFFSLAEVRVGYQSQNISCFFRLVDRDSVWGYDLGLRSLIPAVLTVSMLGYPFILPDMIGGNAVPERTAGRQDGPGPERELYVRWLEVAAFMPAMQFSIPPWQYDAEVVAIAHKFAALRASLVAPLLLELAGEITDTGDPIVRPLWWIAPGDETAHRIDSQFLIGDTLLVAPVLEPGKQERDVYLPAGKWRSYKGELFDKTPVLLTDYPVDLDEVAYFTWAS”: the protein production result is recorded as “failed”.

Take “MSQPTPAVRTFQDLILALQQYWAEQGCVVLQPYDMEVGAGTFHTATFLRAIGPETWNAAYVQPSRRPTDGRYGENPNRLQHYYQFQVVLKPNPENFQELYLGSLKHVGLDPLVHDIRFVEDNWESPTLGAWGLGWEVWLNGMEVTQFTYFQQAGGIECYPVTGEITYGLERLAMYLQGVDSVYDLVWADGPFGKVTYGDVFHQNEVEQSTYNFEHANVEKLFELFDFYESEAKRLIELDQPLPLPSYEMVLKASHTFNLLDARRAISVTARQQYILRVRTLARSVAQAYLLARAKLGFPMATPDLRDEVLAKLEAAQ”: the protein production result is reported as “failed”.

Take “MSQRKYFGTDGVRGEVGGPVINAAFALRLGYAAGRVLAREHREHASGRGRNRPQVVIGKDTRISGYMLESALEAGLSAAGIDVLLAGPVPTPAVAYLTRTLRLAAGIVISASHNPYQDNGIKFFSAHGMKLPDDIEAAIEQALDEPLGCVGSEELGRARRMADAQGRYIEFCKSTFPHDLDLNGLKLVVDAAHGAAYNVAPHVFRELGAEVHAIGVSPDGFNINKGVGALHPESLAEEVRARGADLGIALDGDADRLQMVDGTGRIYNGDELLYAIVRERMQRGPVAGVVGTLMTNYGLERQLQQIGVGFERANVGDRYVLEQMQARGWLYGGESSGHLLCLDCHTTGDGTIAALQVLTALRRADATLAEWVADLRMYPQKMINVPLAPGLDWKTHDGLARARGAVEAELAGRGRVLIRASGTEPKLRLMVEAEDEALAQASAQKLADSLGA”: the protein production entry is recorded as “failed”.

Regarding “MSQSQLLQKLASRLPLGVCVVDEHYQIIYWNEFFTDRLPTAKSDTQENNLLTLFPEAAKFLQKKINSVFVLNNASFSYWEHRPHVFDFSSSRPITGEETAMYQNIEFFPLDIEDHQVKTVCLIVQDVTELASYYQAQKCLSEQLEQEHTALSLLNKKLEAAQNQLLQSEKMVAIGQLAAGVAHEINNPIGFVNSNLQSLQDYNNKLLKLLNFYQKLTHKIGSVPYFTLEQDMLKRYQFEFICSDLPDLIRESIEGLDRVAVIVKSLKSFSHVDSSEWQYANVIEGIENTLKIAANQIKYKAVVLRNFQDNLPELYCQPMQLNQVFLNLLVNAAQAIEERGEISIDVSASDAEFIIVIRDTGSGIAASDLRKIFEPFYTTKLVGTGTGLGLSLSYSIVQKHKGEIKVSSVLGEGTAFTVILPILSPEDVA”, the protein production result is recorded as “failed”.

With “MSQSSDASEKEKPKEKKSQEELEKELDKELKKGGEPKTKKDDQIHKIGETFKAGHTNFTVNKVDRVQKGEYMNVGGAVNEETKTIKDDEERLIIEVTMENIGEDSISYNFIGFDLRDKNDQSVRPVFSIEEKGRILMGGTLVSGKKVTGVLSYVIPKGEQKHYTLVYNPFLADTNSSNTEERVKDDIDYLVKLDLEHHHHHH”, the protein production result is recorded as “not failed”.

Consider “MSQSSECARPHRRGFDFCASAVFLCTQRAQSVGGCAMRGCPLLLWRPETCQNPAPFCRGFAAQGFTAVSVVSRAVTKTTFFDENLIERVLWQFTMKEQRANAIPATCRYARYSANPTPTPRPVKINESDRTMNFEEKIATHYGHGNLTAAIRSGLQAQGITPEQASVEDLGPVDEFHIGGRAATVHFFDQIDLSETSKALDIGCGLGGAARYAAHSFGSQIEGIDLTPEYVETGGALCQWVGLSDKVNLSVASALSMPFESGDFDIAYMMHVGMNIEDKRALFKEVARVLKPGGTFAIYDIMRSNDEDLVYPVPWASSAETCCLAGPATYRAALEEGGFVVRQENDRRDFAIDFFEKMKKANAGQKSPPPLGLHVLMQQTTAEKIPNMIANLQAGRIKPVEIYAVKQ”, for which the protein production entry is “failed”.

Regarding “MSQSSKRKNDSVVETFKDIIPLTFGEEIGNAASHGAAALLTLFILPYAAVHSFNNGGTLESISVSVYVISIFMMFISSTIYHSMQNNTSHKYILRIIDHSMIYVAISGTYTPVLLSVVGGWLGWLVTILLWGTTLWGILYKSIATKVNHRLSLIVYLVMGWVGIIFLPIIIMRTSWWFIFFIFLGGLSYTIGAWFYAQKNKPYFHMIWHIFIVLASFLHMIGIFYFM”, the protein production result is listed as “failed”.

Regarding “MSQTLFWIAAACALAYLAMTARPASLMRSAVKTASVALLALMVLVSGGPVLLVLALALCALGDWLLSRETEATFMAGVGAFAAGHLAYVALFLTHPASDTGQLAAQWPLVAGLAALGLVMASLLAPRAGDLKGPVLAYVPIILGMGLAALTLPQAGVLAWVLPAAAAFIASDMILATEKFLLPPGHPALRLTPYLVWPLYWGAQMGFALALT”, the protein production entry is given as “failed”.

On to “MSQWTTVCKLDDILPGTGVCALVEQQQIAVFRPRNDEQVYAISNIDPFAQASVLSRGIVAEHQDDLWVASPLKKQHFRLYDGFCLEDGAYSVAAYDTQVTNGNVQISIADSDVAVDNSQPLPLEHHHHHH”, for which the protein production entry is on record as “not failed”.

“MSRDLGRLLKIASNQMSTRFDIFAKKYDLTGTQMTIIDYLSRNKNKEVLQRDLESEFSIKSSTATVLLQRMEIKKLLYRKVSGKDSRQKCLKLTKKANKLETIILSYMDSDQSQMTSGLNKEEVVFLEKILKRMIESD”: the protein production entry is listed as “not failed”.

For the sequence “MSRDTVRPPCVHPGFARPLPARASLPFLGRVSPGDSSRRAGRDGRKWGMESGPAIFAGTVFALFGGGLLTWTVSRVRHRAPVAHDVNPVASATLAGLAAVSALVLGAWCFTHL”, the protein production entry is “failed”.

Take “MSRENNVQSTRAERKTLILALVAGMCSDALLSWLTMSSVPFSLFALIALVLSAQMLYQEYLAHPVAEEVPLVGLACFFVGAFGHSAFIKAQYPQEGSNFFSIVIVLLLIFWIGRKLGYIGKPR”: the protein production result was “failed”.

Turning to “MSRFPRRFIDDSSMEDAGISLCPSIHYRPINPNDLDRLEQIHRDIFPIKYESEFFQSVVNGVDIVSWAAVDRSRPDDHSDELIGFVTAKFVLAKDSEIDDLIHYDSSKGEETLIYILTLGVVETYRNRGIAMSLISEVIKYASGLSVCRGVYLHVIAHNNAAICLYKRLMFRCVRRLHGFYLINRHHFDAFLFVYFINGSRTPCSPLEVAMFVVNYMKSGIKSVASKLANKDEKGLKWLFCKDTDCV”, the protein production result is recorded as “failed”.

Regarding “MSRKRSTKPKPAAKIALKKENDQFLEALKLYEGKQYKKSLKLLDAILKKDGSHVDSLALKGLDLYSVGEKDDAASYVANAIRKIEGASASPICCHVLGIYMRNTKEYKESIKWFTAALNNGSTNKQIYRDLATLQSQIGDFKNALVSRKKYWEAFLGYRANWTSLAVAQDVNGERQQAINTLSQFEKLAEGKISDSEKYEHSECLMYKNDIMYKAASDNQDKLQNVLKHLNDIEPCVFDKFGLLERKATIYMKLGQLKDASIVYRTLIKRNPDNFKYYKLLEVSLGIQGDNKLKKALYGKLEQFYPRCEPPKFIPLTFLQDKEELSKKLREYVLPQLERGVPATFSNVKPLYQRRKSKVSPLLEKIVLDYLSGLDPTQDPIPFIWTNYYLSQHFLFLKDFPKAQEYIDAALDHTPTLVEFYILKARILKHLGLMDTAAGILEEGRQLDLQDRFINCKTVKYFLRANNIDKAVEVASLFTKNDDSVNGIKDLHLVEASWFIVEQAEAYYRLYLDRKKKLDDLASLKKEVESDKSEQIANDIKENQWLVRKYKGLALKRFNAIPKFYKQFEDDQLDFHSYCMRKGTPRAYLEMLEWGKALYTKPMYVRAMKEASKLYFQMHDDRLKRKSDSLDENSDEIQNNGQNSSSQKKKAKKEAAAMNKRKETEAKSVAAYPSDQDNDVFGEKLIETSTPMEDFATEFYNNYSMQVREDERDYILDFEFNYRIGKLALCFASLNKFAKRFGTTSGLFGSMAIVLLHATRNDTPFDPILKKVVTKSLEKEYSENFPLNEISNNSFDWLNFYQEKFGKNDINGLLFLYRYRDDVPIGSSNLKEMIISSLSPLEPHSQNEILQYYL”, the protein production entry was “failed”.
